# Assay results from paper PMC12780214 (NPJ Vaccines, 2025).
# B1: LN1F9 Fab (Fab, V domains shown)
# VH: EVKLVESGGGLVKPGGSLKLSCAASGFSFRNYAMSWVRQSPEKRLEWVAEVSSGGGYTYYPDTVTGRFTISRDNAKNILYLEMSSLRSEDTAMYYCTRDPDSSGYLAWFAYWGQGTLVTVSA
# VL: DILLTQSPASLSASVGETVTITCRASENINSYLAWYQQKQGKSPQLLVYNAKTLAEGVPSRFSGSGSDTQFSLKINTLQPEDFGTYYCQHHSGTPYTFGGGTKLEIK
# B2: LN1F9 mAb (IgG) (antibody, V domains shown)
# VH: B1 VH
# VL: B1 VL
# B3: S2B10 mAb (IgG) (antibody, V domains shown)
# VH: QMQLQESGPGLVKPSQSLSLTCTVTGYSITSDYAWNWIRQFPRNKLEWMGFITYSGSTSYNPSLKSRISLTRDTSKNQFFLQLSSVTTEDTATYYCARSGANWDWFAYWGQGTLVTVSA
# VL: DIQMTQSPASLAVSLGQRATISCRASESVDNYGNSFMHWYQQKPGQPPKLLIYRASKLESGIPARFSGSGSRTDFTLTINPVEADDVATYHCQQSNEDPWTFGGGTKLEIK
# B4: S2B10 Fab (Fab, V domains shown)
# VH: B3 VH
# VL: B3 VL
# B5: human ephrin-B2 (residues 27-167) (receptor)
# chain: SIVLEPIYWNSSNSKFLPGQGLVLYPQIGDKLDIICPKVDSKTVGQYEYYKVYMVDKDQADRCTIKKENTPLLNCAKPDQDIKFTIKFQEFSPNLWGLEFQKNKDYYIISTSNGSLEGLDNQEGGVCQTRAMKILMKVGQD
# B6: S1E2 mAb (IgG) (antibody, V domains shown)
# VH: QMQLQESGPGLVKPSQSLSLTCSVTGYSITSGYYWNWIRQFSGNKLEWMGYINHDGSKNYNPSLKNRISITRDTSKNQFFLKLNSVTTEDTATYYCARDYGSYYYPMDYWGQGTSVTVSS
# VL: EIVLTQSPPIMSASPGEKVTITCSASSSVTFMHWFQQKPGTSPKLWIFSTSNLASGVPARFSGSGSGTSYSLTISRMEAEDAATYYCQQRSSYPFTFGSGTKLEIK
# B7: S1E2 Fab (Fab, V domains shown)
# VH: B6 VH
# VL: B6 VL
# B8: LN3D3 Fab (Fab, V domains shown)
# VH: EVKLEESGPELVKPGASVKMSCKASGYTFTNYVMHWVKQKPGQGLEWIGYVNPYNDGTQYNEKFRDKATLTSDKSSSTVYMELNSLTSEDSAVYYCTRGDYPYWVFEVWGAGTTVTVSS
# VL: EIQMTQSPATLSVTPGDSVSLSCRASQSISNNLHWYQQKSHESPRLLIKYASQSISGIPSRFSGSGSGTDFTLSINNLETEDFGMYFCQHSDSWPFTFGSGTKLEIK
# B9: LN3D3 mAb (IgG) (antibody, V domains shown)
# VH: B8 VH
# VL: B8 VL
# What was measured:
# [1] = target: deglycosylated NiVM G head domain without the His-tag (for crystallization) (Nipah virus Malaysia (NP_112027), UniProt Q9IH62); assay: crystal structure
# [2] = target: T1, NiVM G head domain (residues 176-602) (Nipah virus Malaysia (NiVM), UniProt Q9IH62); assay: BLI
# [3] = target: LayV G head domain (residues 176-625) (Langya virus (UUV47206), UniProt A0AAX3C924); assay: ELISA
# [4] = target: NiVM G ectodomain (residues 96-602) (Nipah virus Malaysia (NP_112027), UniProt Q9IH62); assay: ELISA
# [5] = target: MojV G head domain (residues 176-625) (Mòjiāng virus (YP_009094095), UniProt W8TIR7); assay: ELISA
# [6] = target: HeV G head domain (residues 176-605) (Hendra virus (NP_047112, isolate …, UniProt O89343)); assay: ELISA
# Sequence of HeV G head domain (residues 176-605) (Hendra virus (O89343 176-604): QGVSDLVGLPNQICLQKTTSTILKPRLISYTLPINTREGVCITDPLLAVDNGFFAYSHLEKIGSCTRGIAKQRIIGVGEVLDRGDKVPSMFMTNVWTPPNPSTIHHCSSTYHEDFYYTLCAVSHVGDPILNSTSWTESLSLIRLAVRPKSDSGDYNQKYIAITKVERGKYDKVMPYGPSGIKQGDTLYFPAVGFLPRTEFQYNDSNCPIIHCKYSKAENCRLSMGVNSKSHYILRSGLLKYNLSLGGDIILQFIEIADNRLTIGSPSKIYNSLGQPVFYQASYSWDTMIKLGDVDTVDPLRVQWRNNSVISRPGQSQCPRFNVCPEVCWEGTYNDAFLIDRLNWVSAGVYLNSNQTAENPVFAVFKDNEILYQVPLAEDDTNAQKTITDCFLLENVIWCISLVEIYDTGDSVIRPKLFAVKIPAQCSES
# [7] = target: T1, NiVM G head domain (residues 176-602); assay: cryo-EM structure
# [8] = target: T2, NiVM G head domain (residues 176-602) (Nipah virus Malaysia (NiVM), UniProt Q9IH62 176-602); assay: BLI
# T2 sequence: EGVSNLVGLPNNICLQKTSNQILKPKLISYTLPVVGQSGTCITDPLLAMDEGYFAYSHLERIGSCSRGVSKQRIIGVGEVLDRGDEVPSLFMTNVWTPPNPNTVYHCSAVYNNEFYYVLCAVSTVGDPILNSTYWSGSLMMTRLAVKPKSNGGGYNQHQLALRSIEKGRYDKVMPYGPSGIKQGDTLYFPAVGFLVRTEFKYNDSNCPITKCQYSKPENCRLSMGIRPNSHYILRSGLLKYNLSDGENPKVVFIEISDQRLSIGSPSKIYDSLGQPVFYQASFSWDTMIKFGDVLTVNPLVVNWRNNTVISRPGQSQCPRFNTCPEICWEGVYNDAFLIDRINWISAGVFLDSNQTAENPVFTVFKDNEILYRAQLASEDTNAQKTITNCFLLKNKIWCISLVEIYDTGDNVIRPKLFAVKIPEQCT
binder,measurement,setting,value
B1,binding result,[1],binds
B2,binding result,[2],binds
same,binding result,[3],no binding (tested: 1 μg/mL)
same,binding result,[4],binds
same,binding result,[5],no binding (tested: 1 μg/mL)
same,binding result,[6],binds
B3,binding result,[2],binds
same,binding result,[3],no binding (tested: 1 μg/mL)
same,binding result,[4],binds
same,binding result,[5],no binding (tested: 1 μg/mL)
B4,binding result,[7],binds
B5,binding result,[8],binds
B6,binding result,[2],binds
same,binding result,[3],no binding (tested: 1 μg/mL)
same,binding result,[4],binds
same,binding result,[5],no binding (tested: 1 μg/mL)
B7,binding result,[7],binds
B8,binding result,[7],binds
B9,binding result,[2],binds
same,binding result,[3],no binding (tested: 1 μg/mL)
same,binding result,[4],binds
same,binding result,[5],no binding (tested: 1 μg/mL)
